From patent US11833164B2, “Methods of treating Fabry disease in patients having a mutation in the GLA gene” (Amicus Therapeutics, Inc., priority 2019, dated 2023)

Test system: mutant form of α-Gal A expressed in HEK-293 cells
Assay: HEK assay (GLP HEK / Migalastat Amenability Assay): α-Gal A activity in lysates of transiently transfected HEK-293 cells incubated with or without 10 μM migalastat
Type: cell-based, human
Details: for Absolute increase (% WT): 10 μM migalastat versus baseline; for Relative increase: 10 μM migalastat α-Gal A activity relative to baseline; for 10 μM migalastat α-Gal A activity (% WT): 5 days; for 10 μM migalastat α-Gal A activity (% WT) / Baseline α-Gal A activity (% WT): percentage of baseline wild-type α-Gal A activity; for 10 μM migalastat α-Gal A activity (% WT) / Baseline α-Gal A activity (% WT) / Baseline α-Gal A activity / 10 μM migalastat α-Gal A activity: mean ± SEM; for Baseline α-Gal A activity (% WT): absence of migalastat; for Baseline α-Gal A activity / 10 μM migalastat α-Gal A activity: lysates of HEK-293 cells transfected with the mutant form; for Baseline α-Gal A activity: incubated 5 days in the absence of migalastat; for 10 μM migalastat α-Gal A activity: incubated 5 days with 10 μM migalastat
Procedure, shortened: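 Activity reported as 4-MU released (nmol/mg/hr), mean±SEM, from lysates of transiently transfected HEK-293 cells expressing mutant α-Gal A, cultured with or without 10 μM migalastat.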

| Molecule | Absolute increase (% WT) | Relative increase | 10 μM migalastat α-Gal A activity (% WT) | Baseline α-Gal A activity (% WT) | Baseline α-Gal A activity [nmol/mg/h] | 10 μM migalastat α-Gal A activity [nmol/mg/h] |
| --- | --- | --- | --- | --- | --- | --- |
| Y173S (protein) MQLRNPELHLGCALALRFLALVSWDIPGARALDNGLARTPTMGWLHWERFMCNLDCQEEPDSCISEKLFMEMAELMVSEGWKDAGYEYLCIDDCWMAPQRDSEGRLQADPQRFPHGIRQLANYVHSKGLKLGIYADVGNKTCAGFPGSFGYYDIDAQTFADWGVDLLKFDGCSCDSLENLADGYKHMSLALNRTGRSIVYSCEWPLYMWPFQKPNYTEIRQYCNHWRNFADIDDSWKSIKSILDWTSFNQERIVDVAGPGGWNDPDMLVIGNFGLSWNQQVTQMALWAIMAAPLFMSNDLRHISPQAKALLQDKDVIAINQDPLGKQGYQLRQGDNFEVWERPLSGLAWAVAMINRQEIGGPRSYTIAVASLGKGVACNPACFITQLLPVKRKLGFYEWTSRLRSHINPTGTVLLQLENTMQMSLKDLL | 14.8 | 1.2 | 76.2 ± 3.3 | 61.4 ± 3.3 | 21751 ± 1625 | 26270 ± 994 |
| D175H (protein) MQLRNPELHLGCALALRFLALVSWDIPGARALDNGLARTPTMGWLHWERFMCNLDCQEEPDSCISEKLFMEMAELMVSEGWKDAGYEYLCIDDCWMAPQRDSEGRLQADPQRFPHGIRQLANYVHSKGLKLGIYADVGNKTCAGFPGSFGYYDIDAQTFADWGVDLLKFDGCYCHSLENLADGYKHMSLALNRTGRSIVYSCEWPLYMWPFQKPNYTEIRQYCNHWRNFADIDDSWKSIKSILDWTSFNQERIVDVAGPGGWNDPDMLVIGNFGLSWNQQVTQMALWAIMAAPLFMSNDLRHISPQAKALLQDKDVIAINQDPLGKQGYQLRQGDNFEVWERPLSGLAWAVAMINRQEIGGPRSYTIAVASLGKGVACNPACFITQLLPVKRKLGFYEWTSRLRSHINPTGTVLLQLENTMQMSLKDLL | 26.4 | 1.4 | 87.1 ± 3.9 | 60.7 ± 3.4 | 18529 ± 1174 | 26201 ± 994 |
| D175Y (protein) MQLRNPELHLGCALALRFLALVSWDIPGARALDNGLARTPTMGWLHWERFMCNLDCQEEPDSCISEKLFMEMAELMVSEGWKDAGYEYLCIDDCWMAPQRDSEGRLQADPQRFPHGIRQLANYVHSKGLKLGIYADVGNKTCAGFPGSFGYYDIDAQTFADWGVDLLKFDGCYCYSLENLADGYKHMSLALNRTGRSIVYSCEWPLYMWPFQKPNYTEIRQYCNHWRNFADIDDSWKSIKSILDWTSFNQERIVDVAGPGGWNDPDMLVIGNFGLSWNQQVTQMALWAIMAAPLFMSNDLRHISPQAKALLQDKDVIAINQDPLGKQGYQLRQGDNFEVWERPLSGLAWAVAMINRQEIGGPRSYTIAVASLGKGVACNPACFITQLLPVKRKLGFYEWTSRLRSHINPTGTVLLQLENTMQMSLKDLL | 22.9 | 1.8 | 52.3 ± 1.9 | 29.4 ± 2.4 | 8991 ± 838 | 15923 ± 778 |
| S176R (protein) MQLRNPELHLGCALALRFLALVSWDIPGARALDNGLARTPTMGWLHWERFMCNLDCQEEPDSCISEKLFMEMAELMVSEGWKDAGYEYLCIDDCWMAPQRDSEGRLQADPQRFPHGIRQLANYVHSKGLKLGIYADVGNKTCAGFPGSFGYYDIDAQTFADWGVDLLKFDGCYCDRLENLADGYKHMSLALNRTGRSIVYSCEWPLYMWPFQKPNYTEIRQYCNHWRNFADIDDSWKSIKSILDWTSFNQERIVDVAGPGGWNDPDMLVIGNFGLSWNQQVTQMALWAIMAAPLFMSNDLRHISPQAKALLQDKDVIAINQDPLGKQGYQLRQGDNFEVWERPLSGLAWAVAMINRQEIGGPRSYTIAVASLGKGVACNPACFITQLLPVKRKLGFYEWTSRLRSHINPTGTVLLQLENTMQMSLKDLL | 22.0 | 1.3 | 88.3 ± 3.3 | 66.3 ± 2 | 22675 ± 886 | 30159 ± 1226 |
| D175V (protein) MQLRNPELHLGCALALRFLALVSWDIPGARALDNGLARTPTMGWLHWERFMCNLDCQEEPDSCISEKLFMEMAELMVSEGWKDAGYEYLCIDDCWMAPQRDSEGRLQADPQRFPHGIRQLANYVHSKGLKLGIYADVGNKTCAGFPGSFGYYDIDAQTFADWGVDLLKFDGCYCVSLENLADGYKHMSLALNRTGRSIVYSCEWPLYMWPFQKPNYTEIRQYCNHWRNFADIDDSWKSIKSILDWTSFNQERIVDVAGPGGWNDPDMLVIGNFGLSWNQQVTQMALWAIMAAPLFMSNDLRHISPQAKALLQDKDVIAINQDPLGKQGYQLRQGDNFEVWERPLSGLAWAVAMINRQEIGGPRSYTIAVASLGKGVACNPACFITQLLPVKRKLGFYEWTSRLRSHINPTGTVLLQLENTMQMSLKDLL | 19.7 | 1.6 | 53.5 ± 2.5 | 33.7 ± 2.2 | 10430 ± 915 | 16384 ± 1039 |
| L177F (protein) MQLRNPELHLGCALALRFLALVSWDIPGARALDNGLARTPTMGWLHWERFMCNLDCQEEPDSCISEKLFMEMAELMVSEGWKDAGYEYLCIDDCWMAPQRDSEGRLQADPQRFPHGIRQLANYVHSKGLKLGIYADVGNKTCAGFPGSFGYYDIDAQTFADWGVDLLKFDGCYCDSFENLADGYKHMSLALNRTGRSIVYSCEWPLYMWPFQKPNYTEIRQYCNHWRNFADIDDSWKSIKSILDWTSFNQERIVDVAGPGGWNDPDMLVIGNFGLSWNQQVTQMALWAIMAAPLFMSNDLRHISPQAKALLQDKDVIAINQDPLGKQGYQLRQGDNFEVWERPLSGLAWAVAMINRQEIGGPRSYTIAVASLGKGVACNPACFITQLLPVKRKLGFYEWTSRLRSHINPTGTVLLQLENTMQMSLKDLL | 38.7 | 1.9 | 84 ± 2.3 | 45.3 ± 2.1 | 15605 ± 911 | 28893 ± 1210 |
| S176C (protein) MQLRNPELHLGCALALRFLALVSWDIPGARALDNGLARTPTMGWLHWERFMCNLDCQEEPDSCISEKLFMEMAELMVSEGWKDAGYEYLCIDDCWMAPQRDSEGRLQADPQRFPHGIRQLANYVHSKGLKLGIYADVGNKTCAGFPGSFGYYDIDAQTFADWGVDLLKFDGCYCDCLENLADGYKHMSLALNRTGRSIVYSCEWPLYMWPFQKPNYTEIRQYCNHWRNFADIDDSWKSIKSILDWTSFNQERIVDVAGPGGWNDPDMLVIGNFGLSWNQQVTQMALWAIMAAPLFMSNDLRHISPQAKALLQDKDVIAINQDPLGKQGYQLRQGDNFEVWERPLSGLAWAVAMINRQEIGGPRSYTIAVASLGKGVACNPACFITQLLPVKRKLGFYEWTSRLRSHINPTGTVLLQLENTMQMSLKDLL | 16.2 | 1.2 | 79.5 ± 5.1 | 63.3 ± 3.9 | 20097 ± 1126 | 24777 ± 960 |
| L177M (protein) MQLRNPELHLGCALALRFLALVSWDIPGARALDNGLARTPTMGWLHWERFMCNLDCQEEPDSCISEKLFMEMAELMVSEGWKDAGYEYLCIDDCWMAPQRDSEGRLQADPQRFPHGIRQLANYVHSKGLKLGIYADVGNKTCAGFPGSFGYYDIDAQTFADWGVDLLKFDGCYCDSMENLADGYKHMSLALNRTGRSIVYSCEWPLYMWPFQKPNYTEIRQYCNHWRNFADIDDSWKSIKSILDWTSFNQERIVDVAGPGGWNDPDMLVIGNFGLSWNQQVTQMALWAIMAAPLFMSNDLRHISPQAKALLQDKDVIAINQDPLGKQGYQLRQGDNFEVWERPLSGLAWAVAMINRQEIGGPRSYTIAVASLGKGVACNPACFITQLLPVKRKLGFYEWTSRLRSHINPTGTVLLQLENTMQMSLKDLL | 27.9 | 1.4 | 97.4 ± 2.7 | 69.5 ± 2.3 | 23730 ± 946 | 33080 ± 829 |
| D175G (protein) MQLRNPELHLGCALALRFLALVSWDIPGARALDNGLARTPTMGWLHWERFMCNLDCQEEPDSCISEKLFMEMAELMVSEGWKDAGYEYLCIDDCWMAPQRDSEGRLQADPQRFPHGIRQLANYVHSKGLKLGIYADVGNKTCAGFPGSFGYYDIDAQTFADWGVDLLKFDGCYCGSLENLADGYKHMSLALNRTGRSIVYSCEWPLYMWPFQKPNYTEIRQYCNHWRNFADIDDSWKSIKSILDWTSFNQERIVDVAGPGGWNDPDMLVIGNFGLSWNQQVTQMALWAIMAAPLFMSNDLRHISPQAKALLQDKDVIAINQDPLGKQGYQLRQGDNFEVWERPLSGLAWAVAMINRQEIGGPRSYTIAVASLGKGVACNPACFITQLLPVKRKLGFYEWTSRLRSHINPTGTVLLQLENTMQMSLKDLL | 18.1 | 1.2 | 92.8 ± 6.2 | 74.7 ± 6.7 | 23065 ± 2315 | 28273 ± 1968 |
